B1: Motif 4 (t_MSE2 site S4, Probe 5) (dsDNA)
DNA 1: ATGTATACTAATTAGACAGTCTCTTTTTTT
DNA 2: AAAAAAAGAGACTGTCTAATTAGTATACAT
B2: Motif 3 (t_MSE2 site S3, Probe 4) (dsDNA)
DNA 1: GAGAATTCAAGATCATAATATGTATACTAA
DNA 2: TTAGTATACATATTATGATCTTGAATTCTC
B3: Motif 5 (t_MSE2 site S5, Probe 6) (dsDNA)
DNA 1: TTTTTATTACTTCAACTATTCAAATTT
DNA 2: AAATTTGAATAGTTGAAGTAATAAAAA

Target: GST-Abd-A DBD (Drosophila melanogaster, UniProt P29555-2 136-209)
Assay: EMSA; 50 mM HEPES pH 7.9, 100 mM KCl, 1 mM DTT, 12.5 mM MgCl2, 0.05 mM EDTA, 17% glycerol, 400 ng/ul poly(dI-dC), 20 fmol probe, 0-3000 ng protein, 30 min on ice
Conditions: protein: recombinant; tags: N-terminal GST (pGEX4T1); label: 3' biotin on each strand; blunt

Sequence of GST-Abd-A DBD (P29555 396-469): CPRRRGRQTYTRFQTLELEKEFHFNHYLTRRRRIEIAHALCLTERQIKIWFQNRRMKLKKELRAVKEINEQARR

Binder | binding result
B1 | binds
B2 | binds
B3 | binds

Source: paper PMC4383587, “The Evolutionary Origination and Diversification of a Dimorphic Gene Regulatory Network through Parallel Innovations in cis and trans”
